Earlier results, collected in publication PMC11276120.

Assays:
[1] = biological target: PCNA (Saccharomyces cerevisiae) (UniProt P15873); assay: NMR
PCNA (Homo sapiens) = PCNA (Homo sapiens) (UniProt P12004)
PCNA (Homo sapiens), sequence (P12004 whole entry): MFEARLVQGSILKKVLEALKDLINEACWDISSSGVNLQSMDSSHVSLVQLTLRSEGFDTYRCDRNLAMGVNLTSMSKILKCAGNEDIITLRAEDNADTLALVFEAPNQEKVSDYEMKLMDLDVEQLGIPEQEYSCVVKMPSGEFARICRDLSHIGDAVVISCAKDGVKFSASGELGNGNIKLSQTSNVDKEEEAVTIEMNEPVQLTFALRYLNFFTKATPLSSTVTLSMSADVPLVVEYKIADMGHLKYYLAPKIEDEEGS

PCNA (Saccharomyces cerevisiae), sequence (P15873 whole entry): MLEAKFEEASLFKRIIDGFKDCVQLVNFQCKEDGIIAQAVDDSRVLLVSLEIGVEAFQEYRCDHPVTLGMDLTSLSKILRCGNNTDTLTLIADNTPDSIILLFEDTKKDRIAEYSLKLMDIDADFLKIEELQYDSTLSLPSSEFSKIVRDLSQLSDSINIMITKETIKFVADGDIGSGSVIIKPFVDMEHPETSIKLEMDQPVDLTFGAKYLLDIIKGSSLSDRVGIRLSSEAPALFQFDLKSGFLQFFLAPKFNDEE
Rev1 BRCT, sequence (P12689 158-252): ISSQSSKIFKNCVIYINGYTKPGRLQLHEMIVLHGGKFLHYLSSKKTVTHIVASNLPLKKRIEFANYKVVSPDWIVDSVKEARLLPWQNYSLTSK
p21WAF1/CIP1 PIP-box, sequence (P38936 139-160): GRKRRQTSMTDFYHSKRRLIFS

| Kd [1] [µM] | Kd (PCNA (Homo sapiens)) [µM] | Substance |
| --- | --- | --- |
| 79 | – | Rev1 BRCT (from UniProt P12689) |
| – | 0.08 | p21WAF1/CIP1 PIP-box (from UniProt P38936) |
